Experimental data: patent US20100184837A1

Columns and labels:
[1] = target: natural HCV acceptors on human liver cancer cells Huh 7.5.1; assay: flow cytometry, binding to Huh 7.5.1 cells (FIG. 6), with the thirteenth-round DNA aptamer library present as competitor
[2] = target: natural HCV acceptors on human liver cancer cells Huh 7.5.1; assay: flow cytometry, binding to Huh 7.5.1 cells (FIG. 6), with a single DNA aptamer present as competitor
[3] = target: natural HCV acceptors on human liver cancer cells Huh 7.5.1; assay: flow cytometry, binding to Huh 7.5.1 cells (FIG. 6), no aptamer
[4] = target: natural HCV acceptors on human liver cancer cells Huh 7.5.1; assay: flow cytometry, binding to Huh 7.5.1 cells (FIG. 6), control protein

binding rate [4] [%]	Substance	binding rate [1] [%]	binding rate [2] [%]	binding rate [3] [%]
–	GST-E2	23.2	15.4	36.7
1	protein GST	–	–	–
